The labels stand for the following.
B1: Gαq (natural protein)
chain: RRELKLLLLGTGESGKSTFIKQMRIIHGSGYSDEDKRGFTKLVYQNIFTAMQAMIRAMDTLKIPYKYEHNKAHAQLVREVDVEKVSAFENPYVDAIKSLWNDPGIQECYDRRREYQLSDSTKYYLNDLDRVADPSYLPTQQDVLRVRVPTTGIIEYPFDLQSVIFRMVDVGGQRSERRKWIHCFENVTSIMFLVALSEYDQVLVESDNENRMEESKALFRTIITYPWFQNSSVILFLNKKDLLEEKIMYSHLVDYFPEYDGPQRDAQAAREFILKMFVDLNPDSDKIIYSHFTCATDTENIRFVFAAVKDTILQLNLKEYNLV

The target of assay [1] is T1, PLC-β3 truncated at residue 886 (UniProt Q01970 1-886).
T1 sequence (looked up): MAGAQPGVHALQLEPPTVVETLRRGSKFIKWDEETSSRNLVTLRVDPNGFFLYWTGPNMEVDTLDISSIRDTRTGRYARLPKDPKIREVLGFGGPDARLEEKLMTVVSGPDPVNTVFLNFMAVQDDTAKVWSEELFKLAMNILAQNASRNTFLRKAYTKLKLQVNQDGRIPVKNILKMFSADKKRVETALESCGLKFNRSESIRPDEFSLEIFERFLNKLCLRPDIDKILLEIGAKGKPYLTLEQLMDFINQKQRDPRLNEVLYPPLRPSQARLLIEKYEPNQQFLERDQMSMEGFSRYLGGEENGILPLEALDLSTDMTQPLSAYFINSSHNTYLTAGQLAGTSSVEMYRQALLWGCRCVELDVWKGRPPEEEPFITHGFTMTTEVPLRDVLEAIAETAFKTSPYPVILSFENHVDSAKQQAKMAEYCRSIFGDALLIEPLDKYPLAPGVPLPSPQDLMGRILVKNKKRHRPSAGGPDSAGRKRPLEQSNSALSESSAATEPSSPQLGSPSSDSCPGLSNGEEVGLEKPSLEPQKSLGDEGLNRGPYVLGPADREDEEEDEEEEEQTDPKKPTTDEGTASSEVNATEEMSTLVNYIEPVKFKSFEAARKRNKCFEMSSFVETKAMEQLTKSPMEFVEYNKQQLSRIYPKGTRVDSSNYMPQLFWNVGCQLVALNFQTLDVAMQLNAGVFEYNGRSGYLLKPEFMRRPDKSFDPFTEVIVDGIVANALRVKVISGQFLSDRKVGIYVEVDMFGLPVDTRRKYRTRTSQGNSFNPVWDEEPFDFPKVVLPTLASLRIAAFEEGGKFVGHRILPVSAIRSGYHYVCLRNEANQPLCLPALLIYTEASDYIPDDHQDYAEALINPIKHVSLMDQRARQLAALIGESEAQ

In the assay “Gαq” the target is B1.

Consider 2 molecules from article PMC3046049 (Science (New York, N.Y.), 2010).

Turning to B1, the dissociation constant (Kd) (commonly the free concentration of one partner at which half of the binding sites on the other are occupied at equilibrium, for simple one-to-one binding) in assay [1] is about 200 nM.

B2: PLC-β3(L859A) (enzyme, UniProt Q01970 1-1234, looked up)
chain: MAGAQPGVHALQLEPPTVVETLRRGSKFIKWDEETSSRNLVTLRVDPNGFFLYWTGPNMEVDTLDISSIRDTRTGRYARLPKDPKIREVLGFGGPDARLEEKLMTVVSGPDPVNTVFLNFMAVQDDTAKVWSEELFKLAMNILAQNASRNTFLRKAYTKLKLQVNQDGRIPVKNILKMFSADKKRVETALESCGLKFNRSESIRPDEFSLEIFERFLNKLCLRPDIDKILLEIGAKGKPYLTLEQLMDFINQKQRDPRLNEVLYPPLRPSQARLLIEKYEPNQQFLERDQMSMEGFSRYLGGEENGILPLEALDLSTDMTQPLSAYFINSSHNTYLTAGQLAGTSSVEMYRQALLWGCRCVELDVWKGRPPEEEPFITHGFTMTTEVPLRDVLEAIAETAFKTSPYPVILSFENHVDSAKQQAKMAEYCRSIFGDALLIEPLDKYPLAPGVPLPSPQDLMGRILVKNKKRHRPSAGGPDSAGRKRPLEQSNSALSESSAATEPSSPQLGSPSSDSCPGLSNGEEVGLEKPSLEPQKSLGDEGLNRGPYVLGPADREDEEEDEEEEEQTDPKKPTTDEGTASSEVNATEEMSTLVNYIEPVKFKSFEAARKRNKCFEMSSFVETKAMEQLTKSPMEFVEYNKQQLSRIYPKGTRVDSSNYMPQLFWNVGCQLVALNFQTLDVAMQLNAGVFEYNGRSGYLLKPEFMRRPDKSFDPFTEVIVDGIVANALRVKVISGQFLSDRKVGIYVEVDMFGLPVDTRRKYRTRTSQGNSFNPVWDEEPFDFPKVVLPTLASLRIAAFEEGGKFVGHRILPVSAIRSGYHYVCLRNEANQPLCLPALLIYTEASDYIPDDHQDYAEAAINPIKHVSLMDQRARQLAALIGESEAQAGQETCQDTQSQQLGSQPSSNPTPSPLDASPRRPPGPTTSPASTSLSSPGQRDDLIASILSEVAPTPLDELRGHKALVKLRSRQERDLRELRKKHQRKAVTLTRRLLDGLAQAQAEGRCRLRPGALGGAADVEDTKEGEDEAKRYQEFQNRQVQSLLELREAQVDAEAQRRLEHLRQALQRLREVVLDANTTQFKRLKEMNEREKKELQKILDRKRHNSISEAKMRDKHKKEAELTEINRRHITESVNSIRRLEEAQKQRHDRLVAGQQQVLQQLAEEEPKLLAQLAQECQEQRARLPQEIRRSLLGEMPEGLGDGPLVACASNGHAPGSSGHLSGADSESQEENTQL
For B2, the “fold lower binding affinity than PLC-β3” value in the assay with Gαq was 7 fold.
